The target in one data set is BLM RQC (GST-free) (human, UniProt P54132 1068-1209). Description: fluorescence polarization; FP: 10 mM Tris-HCl pH 7.5, 25 mM NaCl, 1 mM DTT, 100 pM DNA, 25 C; EMSA: 10 mM Tris-HCl pH 8.0, 2 mM DTT, 1 mM EDTA, 20% glycerol, 0.2 uM DNA, 4 C, 30 min, 7.5%. (Fluorescence polarisation rises when a labelled molecule tumbles more slowly, as on binding a larger partner.)
A further data set has as its target GST-BLM RQC S1121A (human, UniProt P54132 1068-1209, S1121A). The experiment in a line: EMSA; FP: 10 mM Tris-HCl pH 7.5, 25 mM NaCl, 1 mM DTT, 100 pM DNA, 25 C; EMSA: 10 mM Tris-HCl pH 8.0, 2 mM DTT, 1 mM EDTA, 20% glycerol, 0.2 uM DNA, 4 C, 30 min, 7.5%. In general terms: In EMSA bound probe runs differently from free probe, usually more slowly.
The target in the next data set is GST-BLM RQC R1139A (human, UniProt P54132 1068-1209, R1139A). The data set is described as above.
Chain of GST-BLM RQC R1139A (P54132 1068-1209 R1139A): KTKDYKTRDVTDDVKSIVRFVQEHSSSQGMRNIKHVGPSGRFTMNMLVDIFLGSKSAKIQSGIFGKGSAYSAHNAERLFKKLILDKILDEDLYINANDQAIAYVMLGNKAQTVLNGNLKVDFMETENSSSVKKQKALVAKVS
In a further data set the target is GST-BLM RQC K1125A (human, UniProt P54132 1068-1209, K1125A). The data set is described as above.
Chain of GST-BLM RQC K1125A (P54132 1068-1209 K1125A): as the sequence (P54132 1068-1209 R1139A) above, with K58A, A72R counted along it
A further data set concerns the target GST-BLM RQC (human, UniProt P54132 1068-1209). Description: EMSA; 1, 5, 10 uM protein; FP: 10 mM Tris-HCl pH 7.5, 25 mM NaCl, 1 mM DTT, 100 pM DNA, 25 C; EMSA: 10 mM Tris-HCl pH 8.0, 2 mM DTT, 1 mM EDTA, 20% glycerol, 0.2 uM DNA, 4 C, 30 min, 7.5%.

Chain of BLM RQC (GST-free) (P54132 1068-1209): as the sequence (P54132 1068-1209 R1139A) above, with A72R counted along it
Chain of GST-BLM RQC (P54132 1068-1209): as the sequence (P54132 1068-1209 R1139A) above, with A72R counted along it
Chain of GST-BLM RQC S1121A (P54132 1068-1209 S1121A): as the sequence (P54132 1068-1209 R1139A) above, with S54A, A72R counted along it

B1: forked duplex (dsDNA)
DNA 1: TTTTTTTTTTAGGGCATGCACTAC
DNA 2: GTAGTGCATGCCCTAATTTTTTTT
A word on the Kd: it is the free concentration of one partner at which half of the binding sites on the other are occupied at equilibrium, for simple one-to-one binding. Higher therefore signals lower affinity. In the case of B1, in the data set with BLM RQC (GST-free), the Kd was about 0.7 µM.

B2: Holliday junction (HJ) (structured_DNA)
DNA 1: CTAGAACAGCATGTCCTAGCAAGCCAGAATTC
DNA 2: GAATTCTGGCTTGCTAGGACATCTTTGCCCAC
DNA 3: GTGGGCAAAGATGTCCTAGCAATGTAATCGTC
DNA 4: GACGATTACATTGCTAGGACATGCTGTTCTAG
With B2, the binding signal with GST-BLM RQC S1121A was ~10 % loss of binding vs wild type; with GST-BLM RQC R1139A, ~70 % loss of binding vs wild type; with GST-BLM RQC K1125A, ~50 % loss of binding vs wild type. The binding result with GST-BLM RQC is reported as “binds”.
